# From patent publication US20240261333A1 (published 2024)
# T1: FUBP3 (human, UniProt Q96I24 2-572)
# T1 construct: also called NP_003925.1 (+2)
# T1 sequence (looked up): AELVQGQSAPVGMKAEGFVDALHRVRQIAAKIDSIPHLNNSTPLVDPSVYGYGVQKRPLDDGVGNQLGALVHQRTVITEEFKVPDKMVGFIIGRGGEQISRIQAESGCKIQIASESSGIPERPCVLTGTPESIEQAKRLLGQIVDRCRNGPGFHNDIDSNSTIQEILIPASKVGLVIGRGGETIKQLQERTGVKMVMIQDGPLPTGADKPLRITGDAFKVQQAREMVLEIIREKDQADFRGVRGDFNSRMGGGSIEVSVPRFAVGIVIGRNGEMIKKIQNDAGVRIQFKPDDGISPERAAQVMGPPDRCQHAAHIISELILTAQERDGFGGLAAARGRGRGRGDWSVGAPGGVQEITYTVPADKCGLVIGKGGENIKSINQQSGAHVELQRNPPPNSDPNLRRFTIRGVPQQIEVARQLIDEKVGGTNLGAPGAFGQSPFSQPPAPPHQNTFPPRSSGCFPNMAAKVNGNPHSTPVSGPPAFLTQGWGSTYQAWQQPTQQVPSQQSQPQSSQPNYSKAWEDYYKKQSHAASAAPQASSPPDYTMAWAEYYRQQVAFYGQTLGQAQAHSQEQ
# T2: SAMM50 (human, UniProt Q9Y512 1-469)
# T2 construct: also called NP_056195.3
# T2 sequence (looked up): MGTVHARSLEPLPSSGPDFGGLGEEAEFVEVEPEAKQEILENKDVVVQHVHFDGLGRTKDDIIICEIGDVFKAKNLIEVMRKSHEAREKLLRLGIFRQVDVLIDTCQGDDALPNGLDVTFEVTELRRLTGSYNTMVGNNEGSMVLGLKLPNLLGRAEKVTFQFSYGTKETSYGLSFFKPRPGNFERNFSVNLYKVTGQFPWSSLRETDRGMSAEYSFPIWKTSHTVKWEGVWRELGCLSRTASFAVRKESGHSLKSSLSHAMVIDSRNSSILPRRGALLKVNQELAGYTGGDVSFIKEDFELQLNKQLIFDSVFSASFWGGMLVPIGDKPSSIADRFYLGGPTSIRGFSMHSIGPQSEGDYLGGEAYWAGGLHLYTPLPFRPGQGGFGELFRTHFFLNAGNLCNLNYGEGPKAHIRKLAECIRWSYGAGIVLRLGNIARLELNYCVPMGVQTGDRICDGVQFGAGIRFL
# T3: CAT (human, UniProt P04040 2-527)
# T3 construct: also called NP_001743.1
# T3 sequence (looked up): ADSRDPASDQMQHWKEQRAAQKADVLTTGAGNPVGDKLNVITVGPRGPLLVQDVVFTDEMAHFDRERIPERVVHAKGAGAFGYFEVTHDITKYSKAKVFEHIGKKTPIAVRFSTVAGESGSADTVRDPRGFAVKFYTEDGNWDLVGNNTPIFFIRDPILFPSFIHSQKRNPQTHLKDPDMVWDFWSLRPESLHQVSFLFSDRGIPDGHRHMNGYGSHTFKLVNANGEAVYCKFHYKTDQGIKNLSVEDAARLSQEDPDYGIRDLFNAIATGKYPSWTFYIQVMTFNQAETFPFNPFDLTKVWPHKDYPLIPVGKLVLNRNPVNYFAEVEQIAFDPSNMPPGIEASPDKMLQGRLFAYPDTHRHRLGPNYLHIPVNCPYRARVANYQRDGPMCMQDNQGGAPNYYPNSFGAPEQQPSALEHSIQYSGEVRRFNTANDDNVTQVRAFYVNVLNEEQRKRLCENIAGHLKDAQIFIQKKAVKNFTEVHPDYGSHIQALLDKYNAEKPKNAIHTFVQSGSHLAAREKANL
# B1: C-terminal FLAG tagged B3GNT2 (enzyme, human, UniProt Q9NY97 1-397, looked up)
# chain: MSVGRRRIKLLGILMMANVFIYFIMEVSKSSSQEKNGKGEVIIPKEKFWKISTPPEAYWNREQEKLNRQYNPILSMLTNQTGEAGRLSNISHLNYCEPDLRVTSVVTGFNNLPDRFKDFLLYLRCRNYSLLIDQPDKCAKKPFLLLAIKSLTPHFARRQAIRESWGQESNAGNQTVVRVFLLGQTPPEDNHPDLSDMLKFESEKHQDILMWNYRDTFFNLSLKEVLFLRWVSTSCPDTEFVFKGDDDVFVNTHHILNYLNSLSKTKAKDLFIGDVIHNAGPHRDKKLKYYIPEVVYSGLYPPYAGGGGFLYSGHLALRLYHITDQVHLYPIDDVYTGMCLQKLGLVPEKHKGFRTFDIEEKNKNNICSYVDLMLVHSRKPQEMIDIWSQLQSAHLKC
# notes: Overexpressed in cells and pulled down from the lysate with mouse anti-FLAG antibody; also called C-FLAG B3GNT2; C-term flag; not shown: C-terminal FLAG tag
# What was measured:
# Assay in all cases: co-IP, anti-FLAG, lysate of cells with C-FLAG B3GNT2; mass spectrometry
# [1] = molecular target: T4, PRRC2A (human, UniProt P48634 1-2157)
# T4 construct: also called NP_004629.3 (+1)
# [2] = molecular target: T1, FUBP3
# [3] = molecular target: T5, HUWE1 (human, UniProt Q7Z6Z7 1-4374)
# T5 construct: also called NP_113584.3 (+11)
# [4] = molecular target: RPS3 (human, UniProt P23396 2-243)
# [5] = molecular target: T6, HNRNPK (human, UniProt P61978-3 1-440, limits assumed)
# T6 construct: also called NP_001305115.1 (+1)
# [6] = molecular target: T2, SAMM50
# [7] = molecular target: T3, CAT
# T5 sequence (Q7Z6Z7 whole entry): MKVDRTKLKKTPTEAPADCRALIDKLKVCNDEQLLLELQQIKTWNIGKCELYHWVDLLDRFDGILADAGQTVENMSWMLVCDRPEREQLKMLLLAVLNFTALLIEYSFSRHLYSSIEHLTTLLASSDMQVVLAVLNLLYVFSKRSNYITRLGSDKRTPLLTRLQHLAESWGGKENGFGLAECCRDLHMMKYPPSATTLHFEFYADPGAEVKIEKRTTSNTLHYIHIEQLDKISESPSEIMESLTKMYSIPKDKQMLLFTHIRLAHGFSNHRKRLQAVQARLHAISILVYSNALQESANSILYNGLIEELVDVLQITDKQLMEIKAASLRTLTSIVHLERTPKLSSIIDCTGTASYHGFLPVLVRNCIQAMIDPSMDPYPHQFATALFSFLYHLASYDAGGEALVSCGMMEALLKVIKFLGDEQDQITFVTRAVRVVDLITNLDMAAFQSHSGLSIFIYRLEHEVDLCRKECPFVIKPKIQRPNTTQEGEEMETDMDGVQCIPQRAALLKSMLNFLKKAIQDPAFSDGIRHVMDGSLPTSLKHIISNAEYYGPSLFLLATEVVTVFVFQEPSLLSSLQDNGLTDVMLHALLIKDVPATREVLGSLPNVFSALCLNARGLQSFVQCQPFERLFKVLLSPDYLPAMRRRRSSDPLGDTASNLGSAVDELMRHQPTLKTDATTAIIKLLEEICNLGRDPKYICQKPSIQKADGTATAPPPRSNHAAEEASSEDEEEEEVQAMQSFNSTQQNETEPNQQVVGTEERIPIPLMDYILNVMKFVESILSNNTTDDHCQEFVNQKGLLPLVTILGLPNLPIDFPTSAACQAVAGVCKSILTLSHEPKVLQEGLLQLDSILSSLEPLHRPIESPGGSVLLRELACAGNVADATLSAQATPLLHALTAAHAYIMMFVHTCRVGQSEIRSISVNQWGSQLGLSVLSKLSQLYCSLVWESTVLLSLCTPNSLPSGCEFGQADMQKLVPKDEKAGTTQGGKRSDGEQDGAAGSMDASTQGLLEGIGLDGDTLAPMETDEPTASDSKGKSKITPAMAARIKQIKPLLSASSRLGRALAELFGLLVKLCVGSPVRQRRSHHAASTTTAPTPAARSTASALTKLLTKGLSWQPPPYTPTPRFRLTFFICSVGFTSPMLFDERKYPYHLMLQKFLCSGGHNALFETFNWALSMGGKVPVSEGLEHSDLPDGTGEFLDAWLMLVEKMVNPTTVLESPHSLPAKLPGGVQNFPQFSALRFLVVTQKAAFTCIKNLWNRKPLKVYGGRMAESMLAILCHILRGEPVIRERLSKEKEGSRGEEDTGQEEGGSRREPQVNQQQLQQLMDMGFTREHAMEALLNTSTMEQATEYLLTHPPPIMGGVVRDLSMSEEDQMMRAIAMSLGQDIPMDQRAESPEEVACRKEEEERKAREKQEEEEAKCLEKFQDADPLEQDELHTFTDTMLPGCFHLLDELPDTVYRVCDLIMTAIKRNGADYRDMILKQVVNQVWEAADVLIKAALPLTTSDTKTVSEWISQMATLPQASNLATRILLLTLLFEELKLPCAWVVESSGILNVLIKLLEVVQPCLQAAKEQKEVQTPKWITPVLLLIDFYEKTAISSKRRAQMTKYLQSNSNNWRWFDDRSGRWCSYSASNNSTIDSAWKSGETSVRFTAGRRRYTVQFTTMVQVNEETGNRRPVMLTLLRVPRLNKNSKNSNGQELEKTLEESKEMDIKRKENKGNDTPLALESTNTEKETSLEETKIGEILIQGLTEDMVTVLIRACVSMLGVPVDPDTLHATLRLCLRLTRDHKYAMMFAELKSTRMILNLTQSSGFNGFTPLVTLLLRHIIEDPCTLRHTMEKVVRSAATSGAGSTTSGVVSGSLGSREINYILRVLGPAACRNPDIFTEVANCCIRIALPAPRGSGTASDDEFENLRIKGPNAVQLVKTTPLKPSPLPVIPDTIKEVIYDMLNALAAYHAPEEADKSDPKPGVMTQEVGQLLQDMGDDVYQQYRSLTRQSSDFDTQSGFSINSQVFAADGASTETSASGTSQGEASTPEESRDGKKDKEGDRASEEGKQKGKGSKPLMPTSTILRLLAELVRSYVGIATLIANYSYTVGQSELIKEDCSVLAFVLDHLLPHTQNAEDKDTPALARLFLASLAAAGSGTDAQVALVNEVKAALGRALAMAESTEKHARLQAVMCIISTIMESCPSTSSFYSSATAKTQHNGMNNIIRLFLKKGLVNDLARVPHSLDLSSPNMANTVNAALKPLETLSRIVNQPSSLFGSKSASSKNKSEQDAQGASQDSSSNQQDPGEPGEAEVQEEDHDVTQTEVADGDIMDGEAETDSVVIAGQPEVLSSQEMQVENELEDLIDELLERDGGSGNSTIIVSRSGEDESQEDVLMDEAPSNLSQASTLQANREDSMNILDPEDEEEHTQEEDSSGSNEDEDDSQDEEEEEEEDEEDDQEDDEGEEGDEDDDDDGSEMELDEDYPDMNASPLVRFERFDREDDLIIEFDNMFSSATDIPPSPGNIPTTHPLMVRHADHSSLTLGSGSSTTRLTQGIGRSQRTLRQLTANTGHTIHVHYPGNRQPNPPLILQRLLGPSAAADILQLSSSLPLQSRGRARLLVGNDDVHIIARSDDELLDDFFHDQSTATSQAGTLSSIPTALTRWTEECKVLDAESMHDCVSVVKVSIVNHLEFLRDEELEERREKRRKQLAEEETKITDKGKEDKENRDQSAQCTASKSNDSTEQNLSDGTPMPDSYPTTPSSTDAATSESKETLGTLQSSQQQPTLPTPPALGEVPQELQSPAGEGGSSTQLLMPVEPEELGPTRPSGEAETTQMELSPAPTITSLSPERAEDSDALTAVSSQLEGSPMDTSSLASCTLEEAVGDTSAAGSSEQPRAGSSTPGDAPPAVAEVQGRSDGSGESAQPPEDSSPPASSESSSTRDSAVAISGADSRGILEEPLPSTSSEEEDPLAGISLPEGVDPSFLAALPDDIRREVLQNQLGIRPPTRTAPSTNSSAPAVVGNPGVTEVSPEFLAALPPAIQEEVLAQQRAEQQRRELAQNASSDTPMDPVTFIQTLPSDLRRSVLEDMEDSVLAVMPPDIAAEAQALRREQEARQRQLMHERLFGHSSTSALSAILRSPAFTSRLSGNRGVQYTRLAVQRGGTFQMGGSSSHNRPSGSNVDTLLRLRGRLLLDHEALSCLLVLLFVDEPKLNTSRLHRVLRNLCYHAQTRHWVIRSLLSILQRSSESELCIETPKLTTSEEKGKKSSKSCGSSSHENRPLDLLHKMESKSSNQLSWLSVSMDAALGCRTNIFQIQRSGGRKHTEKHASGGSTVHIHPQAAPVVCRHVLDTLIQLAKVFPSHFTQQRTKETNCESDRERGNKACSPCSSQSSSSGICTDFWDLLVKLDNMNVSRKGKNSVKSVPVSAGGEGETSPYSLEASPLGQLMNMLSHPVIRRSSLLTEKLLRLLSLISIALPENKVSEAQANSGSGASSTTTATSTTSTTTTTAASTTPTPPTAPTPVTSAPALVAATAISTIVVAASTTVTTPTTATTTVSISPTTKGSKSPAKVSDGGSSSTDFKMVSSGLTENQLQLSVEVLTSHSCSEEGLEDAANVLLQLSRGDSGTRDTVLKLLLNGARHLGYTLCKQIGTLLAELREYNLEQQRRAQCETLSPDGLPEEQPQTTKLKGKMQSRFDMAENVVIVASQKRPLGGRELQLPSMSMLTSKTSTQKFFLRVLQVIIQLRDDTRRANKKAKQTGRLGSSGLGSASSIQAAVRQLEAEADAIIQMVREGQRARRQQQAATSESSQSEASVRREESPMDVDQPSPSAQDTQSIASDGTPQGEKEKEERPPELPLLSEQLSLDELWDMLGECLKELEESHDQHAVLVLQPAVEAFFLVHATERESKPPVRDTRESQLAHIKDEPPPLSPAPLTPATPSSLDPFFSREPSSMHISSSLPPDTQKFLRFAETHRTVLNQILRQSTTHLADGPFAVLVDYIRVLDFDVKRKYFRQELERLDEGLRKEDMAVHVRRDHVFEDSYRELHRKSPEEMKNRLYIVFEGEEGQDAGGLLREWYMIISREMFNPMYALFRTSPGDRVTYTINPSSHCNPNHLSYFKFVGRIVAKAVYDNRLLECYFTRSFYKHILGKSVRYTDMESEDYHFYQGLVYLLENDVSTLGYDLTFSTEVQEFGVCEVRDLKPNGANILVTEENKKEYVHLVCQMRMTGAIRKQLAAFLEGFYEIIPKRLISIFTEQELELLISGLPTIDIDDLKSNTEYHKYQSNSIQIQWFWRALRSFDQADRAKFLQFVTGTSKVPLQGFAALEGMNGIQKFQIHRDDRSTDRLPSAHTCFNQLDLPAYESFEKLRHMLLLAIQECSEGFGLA
# T6 sequence (P61978 other isoform, or with tags, fused parts or gaps limits assumed): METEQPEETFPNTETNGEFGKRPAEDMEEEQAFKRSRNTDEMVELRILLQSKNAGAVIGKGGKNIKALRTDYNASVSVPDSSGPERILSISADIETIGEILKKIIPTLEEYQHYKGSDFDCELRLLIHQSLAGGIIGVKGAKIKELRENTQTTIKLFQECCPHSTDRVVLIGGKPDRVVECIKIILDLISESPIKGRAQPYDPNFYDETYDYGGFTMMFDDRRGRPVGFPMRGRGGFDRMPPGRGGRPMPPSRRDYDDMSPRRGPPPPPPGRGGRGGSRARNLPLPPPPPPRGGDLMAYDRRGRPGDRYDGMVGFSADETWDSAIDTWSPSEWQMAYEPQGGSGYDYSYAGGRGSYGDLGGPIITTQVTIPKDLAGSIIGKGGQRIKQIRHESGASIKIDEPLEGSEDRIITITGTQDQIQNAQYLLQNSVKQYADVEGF
binder,measurement,setting,value
B1,co-IP mass spectrometry count,[1],5
same,co-IP mass spectrometry count,[2],9
same,co-IP mass spectrometry count,[3],0
same,co-IP mass spectrometry count,[4],23
same,co-IP mass spectrometry count,[5],12
same,co-IP mass spectrometry count,[6],0
same,co-IP mass spectrometry count,[7],0
